Experiment [1] concerns the target T1, Human eIF4E (aa 28-217) with a C-terminal His tag (human, UniProt P06730 28-217).
T1 construct: also called HH-eIF4E; eukaryotic initiation factor 4E
Put plainly: TR-FRET competition vs biotin-4G2 peptide on HH-eIF4E.
Method: (§1) Test peptides (1.6 mM stock in DMSO) were diluted 3 fold in series in DMSO and solutions were diluted 4 fold in Assay Buffer (50 mM NaPi, pH 6.5, 50 mM KCl, 1 mM DTT, 0.004% NP40 and 0.5 mg/ml gammaglobulin). […] The samples were incubated at room temperature for 20 minutes.
(§2) IC50 values were calculated using Condoseo software (Genedata AG, Basel, Switzerland).

Experiment [2] deals with T1, Human eIF4E (aa 28-217) with a …. Described as above. This is another data set of the same source.
Method: as §1, §2

Where two headings read alike, the source gives them in different places. Square brackets hold non-standard residues; d marks the D form. Nle = CCCC[C@H](N)C(=O)O; Mamp = not defined here; Nva = CCC[C@H](N)C(=O)O

The IC50 is the point on the concentration scale where inhibition reaches its midpoint.

T1 sequence (P06730 other isoform, or with tags, fused parts or gaps limits assumed): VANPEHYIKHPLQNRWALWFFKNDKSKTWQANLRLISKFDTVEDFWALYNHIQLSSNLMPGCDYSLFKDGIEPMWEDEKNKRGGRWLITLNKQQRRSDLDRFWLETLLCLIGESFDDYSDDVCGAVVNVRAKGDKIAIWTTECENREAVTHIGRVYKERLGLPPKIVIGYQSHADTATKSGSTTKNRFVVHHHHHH

B1: peptide of SEQ ID NO: 78 (peptide)
peptide: Ac-Y[Nva]LLAFQF[Nle]-NH2
SMILES: CCCC[C@H](NC(=O)[C@H](Cc1ccccc1)NC(=O)[C@H](CCC(N)=O)NC(=O)[C@H](Cc1ccccc1)NC(=O)[C@H](C)NC(=O)[C@H](CC(C)C)NC(=O)[C@H](CC(C)C)NC(=O)[C@H](CCC)NC(=O)[C@H](Cc1ccc(O)cc1)NC(C)=O)C(N)=O
Regarding B1, the IC50 in experiment [1] turned out to be 6.63 µM.
Molecule Ac-KQYDREFLLDFQFM[dP]A-NH2 [peptide of SEQ ID NO: 65] registered an IC50 in experiment [1] of 7.69 µM.
In the case of Ac-KQYDREFLLDFQFMP[dA]-NH2 [peptide of SEQ ID NO: 64], the IC50 in experiment [1] was found to be 8.69 µM.
Same read-out and setting: under Ac-KQYDREFLLDFQF-NH2 [peptide of SEQ ID NO: 55] stands 14.6 µM.
In turn, Ac-KQYDREFLLDFQFMPA-NH2 [peptide of SEQ ID NO: 52] registered a half-maximal inhibitory concentration (IC50) in experiment [1] of 10.5 µM.
In experiment [1], Ac-KQYDREFLLAFQFMPA-NH2 [peptide of SEQ ID NO: 59] returned an IC50 of 1.42 µM.
Ac-AQYDREFLLDFQFMPA-NH2 [peptide of SEQ ID NO: 63] displayed an IC50 in experiment [1] of 12.3 µM.
Molecule Ac-KQYDRAFLLDFQFMPA-NH2 [peptide of SEQ ID NO: 60] had an IC50 in experiment [1] of 9.26 µM.
In turn, Ac-KQYAREFLLDFQFMPA-NH2 [peptide of SEQ ID NO: 61] yielded an IC50 in experiment [1] of 11.8 µM.
The molecule Ac-KQYDREFLLDFQFMAA-NH2 [peptide of SEQ ID NO: 57] registered an IC50 in experiment [1] of 6.96 µM.
The molecule Ac-KQYDREFLLDFQFAPA-NH2 [peptide of SEQ ID NO: 58] gave an IC50 in experiment [1] of 11.3 µM.
Same read-out and setting: for Ac-KAYDREFLLDFQFMPA-NH2 [peptide of SEQ ID NO: 62] the value was 13.6 µM.

B2: peptide of SEQ ID NO: 85 (peptide)
peptide: Ac-KRKRFDREFLLAFQF[Nle]-NH2
SMILES: CCCC[C@H](NC(=O)[C@H](Cc1ccccc1)NC(=O)[C@H](CCC(N)=O)NC(=O)[C@H](Cc1ccccc1)NC(=O)[C@H](C)NC(=O)[C@H](CC(C)C)NC(=O)[C@H](CC(C)C)NC(=O)[C@H](Cc1ccccc1)NC(=O)[C@H](CCC(=O)O)NC(=O)[C@H](CCCNC(=N)N)NC(=O)[C@H](CC(=O)O)NC(=O)[C@H](Cc1ccccc1)NC(=O)[C@H](CCCNC(=N)N)NC(=O)[C@H](CCCCN)NC(=O)[C@H](CCCNC(=N)N)NC(=O)[C@H](CCCCN)NC(C)=O)C(N)=O
Molecule B2 registered an IC50 in experiment [1] of 0.32 µM.
Molecule Ac-Y[Mamp]LLAFQF[Nle]-NH2 (reading uncertain) [peptide of SEQ ID NO: 77] returned an IC50 in experiment [1] of 5.35 µM.
For the molecule Ac-KQYDREFLLDF-NH2 [peptide of SEQ ID NO: 56], the IC50 in experiment [1] amounted to 3.44 µM.
On the same count and under the same terms, for Ac-QYDREFLLDFQFMPA-NH2 [peptide of SEQ ID NO: 81] the value was 8.68 µM; for Ac-[dK]QYDREFLLDFQFMPA-NH2 [peptide of SEQ ID NO: 83], 1.67 µM.
In experiment [1], Ac-KQYDREFLLDFQF[dM]PA-NH2 [peptide of SEQ ID NO: 66] gave an IC50 of 7.75 µM.
In experiment [1], Ac-Y[Mamb]LLAFQF[Nle]-NH2 [peptide of SEQ ID NO: 76] registered an IC50 of 12 µM. This IC50 lies about 1.5-fold higher than the previous one.
Take Ac-F[5Ava]LLAFQF[Nle]-NH2 [peptide of SEQ ID NO: 79]: the IC50 in experiment [1] came out at 9.34 µM.

B3: peptide of SEQ ID NO: 70 (peptide)
peptide: Ac-YDREFLLDFQF[Nle]-NH2
SMILES: CCCC[C@H](NC(=O)[C@H](Cc1ccccc1)NC(=O)[C@H](CCC(N)=O)NC(=O)[C@H](Cc1ccccc1)NC(=O)[C@H](CC(=O)O)NC(=O)[C@H](CC(C)C)NC(=O)[C@H](CC(C)C)NC(=O)[C@H](Cc1ccccc1)NC(=O)[C@H](CCC(=O)O)NC(=O)[C@H](CCCNC(=N)N)NC(=O)[C@H](CC(=O)O)NC(=O)[C@H](Cc1ccc(O)cc1)NC(C)=O)C(N)=O
Consider B3, for which the IC50 in experiment [1] was determined as 3.39 µM.
Ac-YDREFLLDFQFM-NH2 [peptide of SEQ ID NO: 68] displayed an IC50 in experiment [1] of 13.1 µM.
Molecule YDRQFLLDFQFL (N-terminal Ac; Nle at 12; C-terminal NH2) [peptide of SEQ ID NO: 71] displayed an IC50 in experiment [1] of 11 µM.

B4: peptide of SEQ ID NO: 74 (peptide)
peptide: Ac-YNREFLLDFQF[Nle]-NH2
SMILES: CCCC[C@H](NC(=O)[C@H](Cc1ccccc1)NC(=O)[C@H](CCC(N)=O)NC(=O)[C@H](Cc1ccccc1)NC(=O)[C@H](CC(=O)O)NC(=O)[C@H](CC(C)C)NC(=O)[C@H](CC(C)C)NC(=O)[C@H](Cc1ccccc1)NC(=O)[C@H](CCC(=O)O)NC(=O)[C@H](CCCNC(=N)N)NC(=O)[C@H](CC(N)=O)NC(=O)[C@H](Cc1ccc(O)cc1)NC(C)=O)C(N)=O
In experiment [1], B4 returned an IC50 of 10.9 µM.
In the case of YNRQFLLDFQFL (N-terminal Ac; Nle at 12; C-terminal NH2) [peptide of SEQ ID NO: 75], the IC50 in experiment [1] came to 11 µM.

B5: peptide of SEQ ID NO: 7 (peptide)
peptide: Ac-KRYDREFLLAFQF[Nle]VYDLGLRRLRQRRRLRR-NH2
SMILES: CCCC[C@H](NC(=O)[C@H](Cc1ccccc1)NC(=O)[C@H](CCC(N)=O)NC(=O)[C@H](Cc1ccccc1)NC(=O)[C@H](C)NC(=O)[C@H](CC(C)C)NC(=O)[C@H](CC(C)C)NC(=O)[C@H](Cc1ccccc1)NC(=O)[C@H](CCC(=O)O)NC(=O)[C@H](CCCNC(=N)N)NC(=O)[C@H](CC(=O)O)NC(=O)[C@H](Cc1ccc(O)cc1)NC(=O)[C@H](CCCNC(=N)N)NC(=O)[C@H](CCCCN)NC(C)=O)C(=O)N[C@H](C(=O)N[C@@H](Cc1ccc(O)cc1)C(=O)N[C@@H](CC(=O)O)C(=O)N[C@@H](CC(C)C)C(=O)NCC(=O)N[C@@H](CC(C)C)C(=O)N[C@@H](CCCNC(=N)N)C(=O)N[C@@H](CCCNC(=N)N)C(=O)N[C@@H](CC(C)C)C(=O)N[C@@H](CCCNC(=N)N)C(=O)N[C@@H](CCC(N)=O)C(=O)N[C@@H](CCCNC(=N)N)C(=O)N[C@@H](CCCNC(=N)N)C(=O)N[C@@H](CCCNC(=N)N)C(=O)N[C@@H](CC(C)C)C(=O)N[C@@H](CCCNC(=N)N)C(=O)N[C@@H](CCCNC(=N)N)C(N)=O)C(C)C
In experiment [2], B5 showed an IC50 of 210 nM. This lies in the sub-micromolar range.
Ac-YDREFLLDFQFMPA-NH2 [peptide of SEQ ID NO: 82] gave an IC50 in experiment [1] of 7.52 µM.
In turn, Ac-KQYDREFLLDFQFMP-NH2 [peptide of SEQ ID NO: 53] gave an IC50 in experiment [1] of 7.46 µM.

B6: peptide of SEQ ID NO: 80 (peptide)
peptide: Ac-KRYDREFLLAFQF[Nle]-NH2
SMILES: CCCC[C@H](NC(=O)[C@H](Cc1ccccc1)NC(=O)[C@H](CCC(N)=O)NC(=O)[C@H](Cc1ccccc1)NC(=O)[C@H](C)NC(=O)[C@H](CC(C)C)NC(=O)[C@H](CC(C)C)NC(=O)[C@H](Cc1ccccc1)NC(=O)[C@H](CCC(=O)O)NC(=O)[C@H](CCCNC(=N)N)NC(=O)[C@H](CC(=O)O)NC(=O)[C@H](Cc1ccc(O)cc1)NC(=O)[C@H](CCCNC(=N)N)NC(=O)[C@H](CCCCN)NC(C)=O)C(N)=O
As for B6, the IC50 in experiment [1] came out at 0.643 µM.

B7: peptide of SEQ ID NO: 84 (peptide)
peptide: Ac-KRFDREFLLAFQF[Nle]-NH2
SMILES: CCCC[C@H](NC(=O)[C@H](Cc1ccccc1)NC(=O)[C@H](CCC(N)=O)NC(=O)[C@H](Cc1ccccc1)NC(=O)[C@H](C)NC(=O)[C@H](CC(C)C)NC(=O)[C@H](CC(C)C)NC(=O)[C@H](Cc1ccccc1)NC(=O)[C@H](CCC(=O)O)NC(=O)[C@H](CCCNC(=N)N)NC(=O)[C@H](CC(=O)O)NC(=O)[C@H](Cc1ccccc1)NC(=O)[C@H](CCCNC(=N)N)NC(=O)[C@H](CCCCN)NC(C)=O)C(N)=O
In the case of B7, the IC50 in experiment [1] came to 4.07 µM. This IC50 lies about 6.3-fold higher than the previous one.
In the case of Ac-KQYDREFLLDFQ[dF]MPA-NH2 [peptide of SEQ ID NO: 67], the IC50 in experiment [1] was 13.7 µM.
Ac-YDREFLLDFQF-NH2 [peptide of SEQ ID NO: 69] returned an IC50 in experiment [1] of 12.4 µM.
In experiment [1], Ac-KQYDREFLLDFQFM-NH2 [peptide of SEQ ID NO: 54] yielded an IC50 of 8.84 µM. The IC50 values of the last two molecules are within 1.5-fold of each other.

For the origin of these results see patent US20150166621A1 (Hoffmann-La Roche, published 2015).
